Results taken from patent US20200002415A1 (published 2020).
Changes are numbered by the printed parent chain. Each block holds one binder with its values, some of them ahead of it.

Key:
[1] = target: T1, Recombinant FcγRIIA-131H/H allotype (generated at MedImmune) (human, UniProt P12318 34-217, limits assumed); assay: ELISA on coated recombinant FcγRIIA-131H/H
T1 construct: ELISA coating protein; also called human FcγRIIA; CD32A
T1 sequence: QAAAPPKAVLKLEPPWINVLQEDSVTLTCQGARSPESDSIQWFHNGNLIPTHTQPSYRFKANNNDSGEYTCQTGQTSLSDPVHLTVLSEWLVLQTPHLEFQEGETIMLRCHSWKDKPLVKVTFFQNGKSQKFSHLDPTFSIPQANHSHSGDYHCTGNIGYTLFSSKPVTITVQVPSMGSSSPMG
Experimental: Plates were washed five times with 200 μl of wash buffer (PBS containing 0.1% Tween 20), blocked with blocking buffer containing 5% milk in PBS for 1 hour at room temperature, and washed five additional times with wash buffer. Three-fold serial dilutions of the test antibody or control antibody (R347-Tm) were added to wells in duplicate. Plates were incubated for 2 hours at room temperature, and washed five times with wash buffer. Binding of the antibodies to the FcγRs was detected by adding 50 μl of goat anti-human Fc-HRP (Jackson ImmunoResearch Laboratories, PA) to the wells and incubating for 1 hour at room temperature, washing 10 times, and adding 50 μl TMB substrate (Pierce Biotechnology, MA). The color reaction was stopped with 50 μl 0.2M […] and the absorbance was measured using a spectrophotometer (Molecular Devices, CA) at […].

[2] = target: T2, human FcγRIIA 131R on blood cells of 131R/R donors (human, UniProt P12318 34-317); assay: cell-based or functional assay
T2 chain: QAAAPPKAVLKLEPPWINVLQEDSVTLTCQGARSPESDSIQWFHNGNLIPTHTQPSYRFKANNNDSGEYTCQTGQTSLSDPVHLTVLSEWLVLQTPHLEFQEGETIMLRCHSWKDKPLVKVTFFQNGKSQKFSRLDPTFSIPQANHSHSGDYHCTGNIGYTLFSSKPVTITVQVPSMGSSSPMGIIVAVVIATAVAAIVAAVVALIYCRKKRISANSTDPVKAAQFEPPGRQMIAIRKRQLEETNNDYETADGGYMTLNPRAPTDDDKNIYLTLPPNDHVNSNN

binding result [1]: binds
B3: 32LO0355 (antibody, human IgG1, V domains shown)
VH: QVQLVQSGAEVKKPGASVKVSCKASGYTFTNYGMNWVRQAPGQRLEWMGWLNTYTGESWYPDDFKGRVTITRDTSASTAYMELSSLRSEDTAVYYCARGDYGYDDPLDYWGQGTLVTVSS
VL: DIVMTQSPLSLPVTPGEPASISCRSSKSLLHTNKNTYLHWFLQKPGQSPQLLIYRMSVLASGVPDRFSGSGSGTDFTLKISRVEAEDVGVYYCMQHLEYPLTFGQGTKLEIK
notes: expressed as human IgG1-TM with human kappa light chain; also called optimized IV.3 clone 32LO0355

EC50 of FcγRIIA internalization from the monocyte surface, whole blood FACS assay [2]: 0.2 nM
B4: chimeric IV.3 (human IgG1-TM) (antibody, V domains shown)
VH: QIQLVQSGPELKKPGETVKISCKASGYTFTNYGMNWVKQAPGKGLKWMGWLNTYTGESIYPDDFKGRFAFSSETSASTAYLQINNLKNEDMATYFCARGDYGYDDPLDYWGQGTSVTVSS
VL: DIVMTQAAPSVPVTPGESVSISCRSSKSLLHTNGNTYLHWFLQRPGQSPQLLIYRMSVLASGVPDRFSGSGSGTAFTLSISRVEAEDVGVFYCMQHLEYPLTFGAGTKLELK

The next lines start with the binder.

B1: 32LO0350 (antibody, human IgG1, V domains shown)
VH: B3 VH
VL: B3 VL with K34R
notes: expressed as human IgG1-TM with human kappa light chain; also called optimized IV.3 clone 32LO0350
binding result [1]: binds

B2: 32LO0354 (antibody, human IgG1, V domains shown)
VH: B3 VH with W59Y
VL: B3 VL with K34R
notes: expressed as human IgG1-TM with human kappa light chain; also called optimized IV.3 clone 32LO0354
binding result [1]: binds
